Tested on: cultured PBMCs of the allergic donors
Assay: ELISPOT of IL-5 or IFNg production by cultured PBMCs of TG allergic donors in response to peptide
Assay type: cell-based, human
Conditions: for No of PG+ & th+ peptides per NTGA / No of PP & Th+ peptides per NTGA: Table 6; for No of PG+ & th+ peptides per NTGA: PG+ peptides recognized by T cells of grass allergic donors (n=20); for No of PP & Th+ peptides per NTGA: PP peptides recognized by T cells of grass allergic donors (n=20); for # Th+: Table 7, peptides per NTGA recognized by T cells of grass allergic donors (n=20); for NTGA's containing at least one T cell epitope, Th+ (Col 2): NTGA number given = criterion met, TG allergic donors n=20
In short: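 Counts of responding donors among 20 TG-allergic subjects, judged by ELISPOT for IL-5 or IFNg (positive: minimum 20 SFCs/10^6 PBMCs, stimulation index 2 or more, P .05). Cells were pre-expanded with TG pollen extract or peptide pool, then stimulated at 1×10^5/well with 10 μg/mL peptide.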

| Molecule | No of PG+ & th+ peptides per NTGA | No of PP & Th+ peptides per NTGA | # Th+ | NTGA's containing at least one T cell epitope, Th+ (Col 2) |
| --- | --- | --- | --- | --- |
| NTGA 19: Phl p wild type sequence, Table 2 (protein, Phleum Pratense) GVVATTDAVEACTGVNVAVMVGGFPRKEGMERKDVMSKNVSIYKSQASALEAHAAPNCKVLVVANPANTNALILKEFAPSIPEKNISCLTRLDHNRALGQVSERLNVQVSDVKNVLIWGNHSSSQYPDVNHATVKTSSGEKPVRELVQDDEWLNGPFIATVQQRGAAIIKARKLSSALSAASSACDHIRDWVLGTPEGTFVSMGVYSDGSYGVPAGLIYSFPVTCSGGEWTIVQGLPIDEFSRKKMDATAQELSEEKALAYSCL | 0 | 0 | 0 |  |
| NTGA 52: Phl p wild type sequence, Table 2 (protein, Phleum Pratense) MDACRLLLLLLLGLLGLLAPLASAQLSREFYKASCPDAEKIVAAVIEKKLKEDPGTAAGLLRLLFHDCFANGCDASILIDPLSNQSAEKEAGPNISVRGFEVIDDIKKELEAKCPKTVSCADIVALGTRDAVRISGGPAYEVPTGRRDSLVSNREEADNNLPGPDIPIPKLTSEFLSRGFTPEEMVVLLAGGHSIGKVRCIFIEPDATPMDPGYQASISKLCDGPNRDTGFVNMDEHNPNVIDSSYFANVLAKKMPLTVDRLLGLDSKTTPIIKNMLNKPNDFMPTFAKAMEKLSVLKVITGKDG |  |  | 1 |  |
| NTGA 5/64: Phl p wild type full length sequence from which PG+ peptides of NTGA's 5 and 64 derive (protein, Phleum Pratense) MAAKCYPTVSDEYLAAVAKARRKLRGLIAEKNCAPLMLRIAWHSAGTFDVATKTGGPFGTMRCPAELAHGANAGLDIAVRLLEPIKEQVPILSYADFYQLAGVVAVEITGGPEVPFHPGRQDKTEPPPEGRLPDATLGSDHLRQVFTAQMGLSDQDIVALSGGHTLGRCHKERSGFEGAWTANPLIFDNSYFTELLTGEKEGLLQLPTDKTLLTDPAFRPLVEKYAADEDAFFADYAEAHLKLSELGFGE |  |  |  | 5/64 |
| NTGA 87: Phl p wild type sequence, Table 2 (protein, Phleum Pratense) MAVKVYVVYYSMYGHVGKLAEEIKKGASSVEGVEVKVWQVPEILSEEVLGKMGAPPKTDVPIISPQELAEADGILFGFPTRFGMMASQMKAFFDATGGLWREQSLAGKPAGVFFSTGTQGGGQETTPLTAVTQLTHHGMVFVPVGYTFGAKMFDMEKVQGGSPYGAGTFAGDGSRWPSEMELEHAFHQGKYFAGIAKKLKGS | 0 | 0 | 0 |  |
| NTGA 3: Phl p wild type sequence, Table 2 (protein, Phleum Pratense) MDDHKEHKEKEHTGGNPEVNEEEEEDEEAKRAVLLGPQVPLKEQLELDKDDESLRRWKEQLLGQVDTEQLGETAEPEVKVVDLTILSPDRPDLVLPIPFVADEKGYAFALKDGSTYSFRFSFIVSNNIVSGLKYTNTVWKTGVRVENQKMMLGTFSPQPEPYIYVGEEETTPAGIFARGSYSAKLKFVDDDGKVYLEMSYYFEIRKDWPTGQ | 0 | 0 | 0 |  |
| NTGA 13: Phl p wild type sequence, Table 2 (protein, Phleum Pratense) MDEEYDVIVLGTGLKECILSGLLSVDGLKVLHMDRNDYYGGESTSLNLTKIWKRFKGSEATPDHLGVSKEYNVDMVPKFMMANGALVRVLIRTSVTKYLNFKAVDGSFVYNNGKIHKVPATDVEALKSNLMGLFEKRRARKFFIYVQDYEEEDPKSHEGLDLHKVTTREVISKYGLEDDTVDFIGHALALHRDDNYLDEPAIDTVKRMKLYAESLARFQGGSPYIYPLYGLGELPQAFARLSAVYGGTYMLNKPECKVEFDESGKAFGVTSEGETAKCKKVVCDPSYLPDKVTKVGRVARAICIMKHPIPDTKDSHSVQIILPKKQLKRKSDMYVFCCSYAHNVAPKGKFIAFVSTEAETDKPEIELKPGIDLLGPVEETFFDIYDRYEPANAPEEDNCFVTNSYDATTHFETTVKDVLALYSKITGKELDLSVDLNAASAGESE | 0 | 0 | 0 |  |
| NTGA 8: Phl p wild type sequence, Table 2 (protein, Phleum Pratense) FEGCLAKSYKSEKSDKSATYDYSANIECEKEPPKPLYGGGILTGAEAPAPVSAGGKKLLMAKSKSAPAKGSTLKVELEKDTHYTLSAWLQLSKSTGDVKAILVTPDGNFNTAGMLVVQSGCWTMLKGGATSFAAGKGELFFETNVTAELMVDSMSLQPFSFEEWKSHRHESIAKERKKKVKITVHGSDGKVLPDAELSLERVAKGFPLGNAMTKEILDIPEYEKWFTSRFTVATMENEMKWYSTEYDQNQELYEIPDKMLALAEKYNISVRGHNVFWDDQSKQMDWVSKLSAPQLKKAMEKRMKNVVSRYAGKLIHWDVLNENLHYSFFEDKLGKDASAEVFKEVAKLDDKPILFMNEYNTIEEPNDAAPLPTKYLAKLKQIQSYPGNSKLKYGIGLESHFDTPNIPYVRGSLDTLAQAKVPIWLTEIDVKKGPKQVEYLEEVMREGFAHPGVKGIVLWGAWHAKECYVMCLTDKNFKNLPVGDVVDKLITEWKAVPEDAKTDDKGVFEAELFHGEYNVTVKHKS |  |  | 0 |  |
| NTGA 73: Phl p wild type sequence, Table 2 (protein, Phleum Pratense) MSSAKQVLEPAFQGAGQKPGTEIWRIENFNPVPLPKSDYGKFYCGDSYIVLQTTCNKGGAYLFDIHFWIGKDSSQDEAGTSAIKTVELDTMLGGRAVQHREPQGYESDKFLSYFKPCIIPLEGGFASGFKTPEEEKFETRLYICKGKRAIRVKEVPFARSSLNHDDVFILDTEKKIYQFNGANSNIQERAKALEVIQHLKDKYHEGVCDVAIVDDGKLQAESDSGEFWVVFGGFAPIGKKTVSDDDVILETSPTKLYSINNGKLKLEDIVLTKSILENTKCFLLDCGSELFVWVGRVTQVDDRKAASAAVEEFIVKQNRPKTTRVTQVIQGYENHTFKSLFESWPVSSTGNASTEEGRGKVAALLKKKGDVKGASKNSTPVNEEVPPLLEGSGKLEVWCVDGSAKTALPKEDLGKFHSGDCYIVLYTYHSGEKREEFYLTYWIGKDSVLEDQHMALQIATTIWNSMKGRPVLGRIYQGKEPPQFIALFQPMVILKGGISSGYKKSIEENGLKDETYSGTGIALVHIHGTSIHNNKTLQVDAVSISLSSTDCFVLQSGNSMFTWIGNTSSYEQQQWAAKVAEFLKPGASVKHCKEGTESSAFWSALGGKQNYTSKNATQDVLREPHLYTFSFRNGKLEVTEVFNFSQDDLLTEDVMILDTHAEVFVWMGQCVDTKEKQTAFETGQKYVEHAVNFEGLSPDVPLYKVSEGNEPCFFRTYFSWDNTRSVIHGNSFQKKLSLLFGMRSESGSKGSGDGGPTQRASALAALSSAFNPSSQDKQSNDRPKSSGDGGPTQRASALAALSSSLNPSSKPKSPHSQSRSGQGSQRAAAVAALSNVLTAEGSTLSPRNDAEKTELAPSEFHTDQDAPGDEVPSEGERTEPDVSQEETANENGGETTFSYDRLISKSTDPVRGIDYKRRETYLSDSEFETVFGVTKEEFYQQPRWKQELQKRKADLF | 0 | 0 | 0 |  |
| NTGA 86: Phl p wild type sequence, Table 2 (protein, Phleum Pratense) MSTAEATREENVYMAKLAEQAERYEEMVEFMEKVAKTADVGELTVEERNLLSVAYKNVIGARRASWRIISSIEQKEESRGNEAYVASIKEYRTRIETELSKICDGILKLLDSHLVPSATAAESKVFYLKMKGDYHRYLAEFKAGAERKEAAENTLVAYKSAQDIALADLPTTHPIRLGLALNFSVFYYEILNSPDRACNLAKQAFDEAIAELDSLGEESYKDSTLIMQLLRDNLTLWTSDNADEGGDEIKEASKPEGEGH | 1 | 1 | 0 | 86 |
| NTGA 77: Phl p wild type sequence, Table 2 (protein, Phleum Pratense) QEVAGDVRMTDTRADEAERGITIKSTGISLYYEMSEESLASYKGDRDGNDYLINLIDSPGHVDFSSEVTAALRITDGALVVVDCIEGVCVQTETVLRQALGERIRPVLTVNKMDRCFLELQVDGEEAYQTFSRVIENANVIMATYEDALLGDVQVYPEKGTVAFSAGLHGWAFTLTNFAKMYASKFGVDESKMMERLWGENFFDPATKKWTSKNTGSGTCKRGFVQFCYEPIKQIIEICMNDQKDKLWPMLKKLGVTMKNDEKDLMGKALMKRVMQAWLPASRALLEMMVYHLPSPSKAQRYRVENLYEGPLDDVYANAIRNCDPEGPLMLYVSKMIPASDKGRFFAFGRVFAGRVATGMKVRIMGPNFVPGQKKDLYTKSVQRTVIWMGKKQESVEDVPCGNTVALVGLDQFITKNATLTGEKEVDACPIRAMKFSVSPVVRVAVQCKVASDLPKLVEGLKRLAKSDPMVLCSIEESGEHIIAGAGELHLEICLKDLQDDFMGGAEIIVSPPVVSFRETVLDKSCRTVMSKSPNKHNRLYMEARPLEEGLPEAIDEGRIGPRDDPKVRSKILSEEFGWDKDLAKKIWCFGPETTGPNMVVDMCKGVQYLNEIKDSVVAGFQWASKEGALADENMRGICFEVCDVVLHTDAIHRGGGQVIPTARRVIFASQLTAKPRLLEPVYLVEIQAPEGALGGIYGVLNQKRGHVFEEMQRPGTPLYNIKAYLPVIESFGFSATLRAATSGQAFPQCVFDHWDVMNSDPLEVDSQSFNLVKEIRKRKGLKEQMTPLSDFEDKL | 4 | 2 | 0 | 77 |
| NTGA 39/59: Phl p wild type full length sequence from which PG+ peptides of NTGA's 39 and 59 derive (protein, Phleum Pratense) MAPRKFFVGGNWKCNGASDDVKKIVTVLNEAEVPSEDAVEVVVSPPFVFLQQAKALLRPDFAVAAQNCWVRKGGAFTGEISAEMLVNLQVPWVILGHSERRALLSESNDFVADKVAYALAQGLKVIACIGETLEQREAGTTMEVVAAQTKAIAEKISDWTNVVLAYEPVWAIGTGKVASRAQAQEVHDGLRKWLHANVGPAVAESTRIIYGGSVNGANCKELAAQPDLDGFLVGGASLKPEFVDIIKSATVKSSS |  |  |  | 39/59 |

— patent publication US20160287696A1, “PAN POLLEN IMMUNOGENS AND METHODS AND USES FOR IMMUNE RESPONSE MODULATION” (LA JOLLA INSTITUTE FOR ALLERGY AND IMMUNOLOGY, priority 2013, published 2016)
